Laboratory results from publication doi:10.1101/2025.07.21.666041 (bioRxiv, 2025).
Values joined by “and” are separate entries in the source; they are usually repeats but may differ in a detail not shown here. Equal values may be shown once. Read-outs that look alike come from different tables or passages of the source.

What was measured:
[1] = biological target: Measles virus (MeV) nonstructural protein C, full length, C-terminal GFP-Flag (measles virus) (UniProt P35977); assay: MST
[2] = biological target: T1, Measles virus (MeV) large (L) protein, full length (measles virus, UniProt P35975 1-2183); assay: SEC
T1 sequence (P35975 whole entry): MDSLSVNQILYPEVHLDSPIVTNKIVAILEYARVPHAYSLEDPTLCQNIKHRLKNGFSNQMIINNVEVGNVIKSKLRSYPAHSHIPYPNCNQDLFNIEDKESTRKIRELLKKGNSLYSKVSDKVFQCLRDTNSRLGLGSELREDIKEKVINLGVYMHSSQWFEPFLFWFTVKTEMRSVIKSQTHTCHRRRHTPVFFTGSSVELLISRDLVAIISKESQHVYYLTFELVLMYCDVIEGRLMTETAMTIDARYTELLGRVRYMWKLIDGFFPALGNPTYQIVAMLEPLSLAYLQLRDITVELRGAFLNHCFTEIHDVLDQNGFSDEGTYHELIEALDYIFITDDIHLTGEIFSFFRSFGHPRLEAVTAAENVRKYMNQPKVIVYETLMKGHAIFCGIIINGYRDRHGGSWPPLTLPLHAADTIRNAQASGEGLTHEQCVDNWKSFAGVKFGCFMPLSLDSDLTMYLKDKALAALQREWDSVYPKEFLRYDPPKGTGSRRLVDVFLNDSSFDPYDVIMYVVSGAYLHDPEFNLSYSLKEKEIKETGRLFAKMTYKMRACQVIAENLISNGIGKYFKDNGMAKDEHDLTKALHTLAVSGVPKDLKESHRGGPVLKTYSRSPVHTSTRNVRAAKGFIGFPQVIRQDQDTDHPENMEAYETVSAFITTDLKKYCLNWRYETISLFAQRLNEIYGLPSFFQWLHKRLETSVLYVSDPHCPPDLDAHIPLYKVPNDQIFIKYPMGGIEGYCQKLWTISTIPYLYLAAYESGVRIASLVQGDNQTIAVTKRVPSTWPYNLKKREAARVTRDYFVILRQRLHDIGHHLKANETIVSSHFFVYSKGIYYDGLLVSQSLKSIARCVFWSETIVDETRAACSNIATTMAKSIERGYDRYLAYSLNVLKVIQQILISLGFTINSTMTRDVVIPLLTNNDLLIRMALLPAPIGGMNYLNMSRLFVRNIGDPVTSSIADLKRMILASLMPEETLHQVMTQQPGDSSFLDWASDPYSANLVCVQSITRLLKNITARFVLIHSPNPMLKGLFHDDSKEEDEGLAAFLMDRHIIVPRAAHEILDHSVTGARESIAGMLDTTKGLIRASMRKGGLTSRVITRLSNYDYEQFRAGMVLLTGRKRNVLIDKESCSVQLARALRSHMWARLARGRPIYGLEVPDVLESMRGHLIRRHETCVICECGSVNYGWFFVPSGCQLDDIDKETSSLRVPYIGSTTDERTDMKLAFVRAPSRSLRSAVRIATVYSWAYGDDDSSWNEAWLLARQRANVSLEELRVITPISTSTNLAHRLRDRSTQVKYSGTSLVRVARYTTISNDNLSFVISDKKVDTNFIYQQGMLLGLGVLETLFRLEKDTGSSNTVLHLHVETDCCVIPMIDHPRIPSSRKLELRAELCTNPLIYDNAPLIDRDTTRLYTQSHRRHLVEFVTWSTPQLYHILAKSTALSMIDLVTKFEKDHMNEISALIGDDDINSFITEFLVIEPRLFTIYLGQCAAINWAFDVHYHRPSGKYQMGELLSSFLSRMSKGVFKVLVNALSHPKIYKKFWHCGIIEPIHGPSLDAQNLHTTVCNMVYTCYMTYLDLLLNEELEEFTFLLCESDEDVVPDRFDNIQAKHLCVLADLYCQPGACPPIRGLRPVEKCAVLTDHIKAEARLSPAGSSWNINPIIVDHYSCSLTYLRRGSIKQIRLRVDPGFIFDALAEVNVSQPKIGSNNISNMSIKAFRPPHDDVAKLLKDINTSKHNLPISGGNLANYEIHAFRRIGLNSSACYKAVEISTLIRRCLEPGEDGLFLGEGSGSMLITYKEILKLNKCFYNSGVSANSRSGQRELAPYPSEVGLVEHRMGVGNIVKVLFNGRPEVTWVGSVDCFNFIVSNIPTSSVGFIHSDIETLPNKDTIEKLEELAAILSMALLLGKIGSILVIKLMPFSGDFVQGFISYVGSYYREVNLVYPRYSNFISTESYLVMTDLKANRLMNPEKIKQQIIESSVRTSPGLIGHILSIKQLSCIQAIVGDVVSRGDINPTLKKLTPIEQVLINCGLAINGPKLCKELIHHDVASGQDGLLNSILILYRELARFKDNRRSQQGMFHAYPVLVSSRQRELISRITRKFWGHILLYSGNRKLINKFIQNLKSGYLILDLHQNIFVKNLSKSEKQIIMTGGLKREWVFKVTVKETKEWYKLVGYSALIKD

[3] = biological target: the molecule itself; assay: cryo-EM structure
[4] = biological target: T1, Measles virus (MeV) large (L) protein, …; assay: cryo-EM structure
[5] = biological target: Measles virus L–P complex (full-length L with truncated P 304–507) (measles virus, UniProt P35975;P35974); assay: MST
Measles virus L–P complex (full-length L with truncated P 304–507), sequence (P35975 whole entry, the tested form may be a part, one chain of several): as the sequence (P35975 whole entry) above

[6] = biological target: the molecule itself; assay: cryo-EM structure; remark: listed apart in the source

With “Measles virus nucleoprotein N lacking the N-arm (residues 30–525) (from UniProt P35972 30-525) (domain or fragment)” the Kd [1] was 4.57 µM and 3.92 µM.

B1: Measles virus (MeV) phosphoprotein P, full length (natural protein)
chain: MAEEQARHVKNGLECIRALKAEPIGSLAIEEAMAAWSEISDNPGQERATCREEKAGSSGLSKPCLSAIGSTEGGAPRIRGQGPGESDDDAETLGIPPRNLQASSTGLQCYYVYDHSGEAVKGIQDADSIMVQSGLDGDSTLSGGDNESENSDVDIGEPDTEGYAITDRGSAPISMGFRASDVETAEGGEIHELLRLQSRGNNFPKLGKTLNVPPPPDPGRASTSGTPIKKGTERRLASFGTEIASLLTGGATQCARKSPSEPSGPGAPAGNVPEYVSNAALIQEWTPESGTTISPRSQNNEEGGDYYDDELFSDVQDIKTALAKIHEDNQKIISKLESLLLLKGEVESIKKQINRQNISISTLEGHLSSIMIAIPGLGKDPNDPTADVEINPDLKPIIGRDSGRALAEVLKKPVASRQLQGMTNGRTSSRGQLLKEFQPKPIGKKMSSAVGFVPDTGPASRSVIRSIIKSSRLEEDRKRYLMTLLDDIKGANDLAKFHQMLMKIIMK
B1: binds [2].

B2: Measles virus (MeV) phosphoprotein P, N-terminally truncated (residues 304–507) (domain or fragment)
chain: GDYYDDELFSDVQDIKTALAKIHEDNQKIISKLESLLLLKGEVESIKKQINRQNISISTLEGHLSSIMIAIPGLGKDPNDPTADVEINPDLKPIIGRDSGRALAEVLKKPVASRQLQGMTNGRTSSRGQLLKEFQPKPIGKKMSSAVGFVPDTGPASRSVIRSIIKSSRLEEDRKRYLMTLLDDIKGANDLAKFHQMLMKIIMK
B2 was tested, and the “stoichiometry N” value [3] was 4 and the binding result [4] was “binds”.

B3: Measles virus (MeV) nonstructural protein C, full length, C-terminal GFP-Flag (natural protein)
chain: MSKTDWNASGLSRPSPSAHWPSRKLWQHGQKYQTTQDRSEPPAGKRRQAVRVSANHASQQLDQLKAVHLASAVRDLERAMTTLKLWESPQEISRHQALGYSVIMFMITAVKRLRESKMLTLSWFNQALMVIAPYQEETMNLKTAMWILANLIPRDMLSLTGDLLPSLWGSGLLMLKLQKEGRSTSS
B3 was tested, and the Kd [5] was about 0.32 µM and the “stoichiometry N” value [6] was 2.
